# Experimental data reported in paper doi:10.1101/2024.10.03.616038 (2024).
# B1: DXP-604 (IgG1) (antibody, V domains shown)
# VH: EVQLVESGGGLIQPGGSLRLSCAASGIIVSSNYMTWVRQAPGKGLEWVSVIYSGGSTFYADSVKGRFTISRDNSKNTLYLQMSSLRAEDTAVYYCARDLGPYGMDVWGQGTTVTVSS
# VL: DIQLTQSPSFLSASVGDRVTITCRASQGISSDLAWYQQKPGKAPNLLIYAASTLQSGVPSRFSGSGSGTEFTLTISSLQPEDFATYYCQQLNSDLYTFGQGTKLEIK
# B2: REGN10987 (IgG1) (antibody, V domains shown)
# VH: QVQLVESGGGVVQPGRSLRLSCAASGFTFSNYAMYWVRQAPGKGLEWVAVISYDGSNKYYADSVKGRFTISRDNSKNTLYLQMNSLRTEDTAVYYCASGSDYGDYLLVYWGQGTLVTVSS
# VL: QSALTQPASVSGSPGQSITISCTGTSSDVGGYNYVSWYQQHPGKAPKLMIYDVSKRPSGVSNRFSGSKSGNTASLTISGLQSEDEADYYCNSLTSISTWVFGGGTKLTVL
# B3: BD55-5840 (IgG1) (antibody, V domains shown)
# VH: VQLAQSGSELRKPGASVKVSCDTSGHSFTSNAIHWVRQAPGQGLEWMGWINTDTGTPTYAQGFTGRFVFSLDTSARTAYLQISSLKADDTAVFYCARERDYSDYFFDYWGQGTLVTVSS
# VL: EVVMTQSPASLSVSPGERATLSCRARASLGISTDLAWYQQRPGQAPRLLIYGASTRATGIPARFSGSGSGTEFTLTISSLQSEDSAVYYCQQYSNWPLTFGGGTKVEIK
# B4: S2K146 (IgG1) (antibody, V domains shown)
# VH: QVQLVESGGVVVQPGGSLRLSCAASGFTFHDHTMHWVRQAPGKGLEWVSLITWNGGTIHYSDSVKGRFTISRDNSKNSLYLQMNSLRTEDTALYYCAKDLGRGGWYLPSDAWGQGTLVTVSS
# VL: not shown
# B5: LY-CoV1404 (IgG1) (antibody, V domains shown)
# VH: QITLKESGPTLVKPTQTLTLTCTFSGFSLSISGVGVGWLRQPPGKALEWLALIYWDDDKRYSPSLKSRLTISKDTSKNQVVLKMTNIDPVDTATYYCAHHSISTIFDHWGQGTLVTVSS
# VL: QSALTQPASVSGSPGQSITISCTATSSDVGDYNYVSWYQQHPGKAPKLMIFEVSDRPSGISNRFSGSKSGNTASLTISGLQAEDEADYYCSSYTTSSAVFGGGTKLTVL
# Target: SARS-CoV-2 Spike RBD, original (Wuhan) strain (SARS-CoV-2, UniProt P0DTC2)
# Assay: SPR
row,Binder,Kd
1,B1,0.214 nM
2,B2,14.5 nM
3,B3,0.0759 nM
4,B4,0.0457 nM
5,B5,0.977 nM
